± gives the half width of the 95% confidence interval.
Legend:
[1] = folding stability dG unfold from chymotrypsin proteolysis; higher = more stable
How it was run: (§1)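 Bayesian fitting of sequencing counts gave K50 for each design. Unfolding free energy followed by setting this against a sequence-predicted unfolded-state K50 and a shared folded-state K50, either per protease or with trypsin and chymotrypsin combined. The designs, under 80 residues and lacking cysteine, were digested in a PA-tagged cDNA display format at 11 threefold-diluted protease concentrations and without protease, and only those with AlphaFold2 dimer inter-PAE above 15 were kept.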

[2] = folding stability dG unfold (combined trypsin and chymotrypsin); higher = more stable
How it was run: as §1

[3] = folding stability dG unfold from trypsin proteolysis; higher = more stable
How it was run: as §1

Row | Sequence | folding stability dG unfold [1] [kcal/mol] | folding stability dG unfold [2] [kcal/mol] | folding stability dG unfold [3] [kcal/mol]
1 | SAGGSADPIRTISGPVPLEEIEANIKKLLKENPNLDAAVFYIPEIGSKITIYFKNGKIVKIEIDLSSAGGSA [r15_166_TrMRF] | 4.79 ± 0.13 | 4.59 ± 0.16 | 2.88 ± 0.084
2 | SAGGSAGGSAGKKIKLPKELKGKKIEVKEVEIEVEVNGKKYKFKAKIVKFDGKIIAIELESAGGSAGGSAGG [r11_21_TrROS_Hall] | 3.31 ± 0.055 | 2.98 ± 0.17 | 1.36 ± 0.069
3 | SAGGSAGGSAGENKPIKVLVFLEKEDEYYEELFEFDSPEEIEEWLKKIPKDYKVKKVIVFSAGGSAGGSAGG [r17_410_TrMRF] | 3.95 ± 0.14 | 3.61 ± 0.16 | 3.09 ± 0.11
4 | SAELIEALKKAGYRIKIEVEVTEVRVVRNEDGELKVEAKIKVKIEIEPLPPPPPPLSLEDLLDKNGKLVSAG [r14_569_TrROS_Hall] | 3.3 ± 0.13 | 2.95 ± 0.56 | 3.26 ± 0.41
5 | SAGGSATPKDPDGKEWKPIAVIDIEEMRPETLKELLEENKGPIWIHPPGEGKPFWIPADEIEDMIDSAGGSA [r15_904_TrROS] | -0.129 ± 0.2 | 0.336 ± 0.21 | 0.668 ± 0.054
6 | SAGPDLPFDVRLVEVRDMEVRVTPDGRLVVTLPMVGRHPSGFLVRRTIRFEPETDRVEATGEVRPLDESAGG [r19_320_TrMRF] | 0.804 ± 0.087 | 0.774 ± 0.059 | 0.581 ± 0.062
7 | SAGMPGKIRVEVEAEISEDNVIKLKIKIYGPDGELIDEIEAEIYLPVPPLSPSEGGGLIEAGNPELAEGSAG [r5_944_TrMRF] | 3.38 ± 0.092 | 3.13 ± 0.13 | 2.54 ± 0.2
8 | SAGGSAGGGGSSMTIVDPKDVPFGQTFTVTTYAPGGKKISTTTLTVDVPPPVWRTDGNGKWFLESAGGSAGG [r6_487_JUSTAS] | 0.28 ± 0.27 | 0.4 ± 0.2 | 0.163 ± 0.19
9 | SAGWQTIDFPIPPGEDIPIPIGNRPLRIQVDPNKNKYEIFNPFLGYRISIDVDPGAGWIKITIEPLKPPSAG [r5_302_TrROS] | 4.5 ± 0.15 | 3.98 ± 0.26 | 3.34 ± 0.13
10 | SAGGSAGGSAKITITKEDIVSYDEENKTFTIKLKDGSTIKIRVEKVKDGKIKVYDEDTGKPISAGGSAGGSA [r18_418_TrROS_Hall] | 1.79 ± 0.048 | 1.65 ± 0.18 | 1.27 ± 0.063
11 | SAGGSAGGSAKKKKKKFKIVKIEIEVEVVKDKKTNKYYVKVKIKIYLKGNKKEFEMEFVFPSAGGSAGGSAG [r3_424_TrROS_Hall] | 4.07 ± 0.24 | 3.37 ± 0.59 | 2.29 ± 0.24
12 | SAGGDNKPKVYPITFMIPPDDIKPGDEIPIDEIADNLGIPPNYTIKIKEVQPNPEDGYYMYRIEIVWSAGGS [r16_165_TrROS] | 1.68 ± 0.085 | 1.65 ± 0.073 | 1.57 ± 0.041
13 | SAGGMPYRLDAVRVEVRPRPDGGPLLVVELTYPDGSRETAVFDSPEDLLRALENSPRFSEITLLPSVSAGGS [r16_757_TrMRF] | 0.16 ± 0.088 | 0.739 ± 0.046 | 1.01 ± 0.017
14 | SAGAIERILEWLKDQPPGDEVPIPIRLPNGWYIKINIEYNPEENKPKIEVEYYDPDDGKPRQEQKFTIPSAG [r5_35_TrROS] | 0.899 ± 0.17 | 1.31 ± 0.25 | 1.59 ± 0.077
15 | SDPDAKLLPATFTFRDPLTGEEVTVEVTVYETSGYLLAPAKVTVTLPTKPRTLTATLLVDENGNVHLFVSSA [r9_1015_TrMRF] | 4.31 ± 0.08 | 3.73 ± 0.17 | 2.82 ± 0.2
16 | SAGGSAGGEYELLTFTLEFEVPPEVEHVEFEAELEDFDEILEVRARPDPETGTVRVEIVARARPSAGGSAGG [r6_712_TrMRF] | 2.62 ± 0.06 | 2.28 ± 0.19 | 1.46 ± 0.044
17 | SMKPGETVTLEVVIRVKKENMTLEEIAEEVANAIKALLPPGAKITIEVVDIEYDEETDEVYVKLKITIENSA [r9_706_TrROS_Hall] | 2.64 ± 0.23 | 3.01 ± 0.32 | 4.17 ± 0.28
